Series [1] concerns the target ultra-large von Willebrand factor (ULvWF) (human) (UniProt P04275). Nature of the series: cell-based or functional assay.
Series [2] has as its target T1, human von Willebrand Factor (vWF) (human, UniProt P04275 764-2813).
T1 construct: Multimeric plasma protein; The species of the vWF on the BIACORE chip and ELISA plates is not restated there; also called vWF (Red Cross); human vWF
Put plainly: BIACORE (SPR): vWF amine-coupled to a CM5 chip, nanobody injected at 1.3 nM.
Description: (§1) The CM5 surface of the chip was activated by the injection of EDC/NHS (1:1 mix of 0.4 M 1-ethyl-3-(3-dimethylaminopropyl)-carbodiimide and 0.1 M N-hydroxysuccinimide in water) for 7 minutes. […] The excess of reactive groups was deactivated with 1 M Ethanolamine-HCl (pH 8.5) for 7 minutes. The flowrate was kept constant during the immobilization procedure at 5 ul/min The eluent buffer was 0.01 M HEPES (pH 7.4) with 0.15 M NaCl, 3 mM EDTA and 0.005% Surfactant P20.

The target in series [3] is T1, human von Willebrand Factor (vWF). Described as above. The source holds these as a separate data set.
Description: as §1
Series [4] has the same target. Nature of the series: ELISA: vWF coated on the plate, nanobody titrated from 10 µg/ml in 3-fold steps, detection with mouse anti-myc and anti-mouse-HRP, OD 405 nm. (An ELISA detects its analyte on a solid surface through an enzyme-linked reagent.)
Description: The plate was coated overnight at 4° C. The plate was then washed with PBS-Tween and blocked for two hours at room temperature with PBS-1% casein. After washing, the samples were applied starting at a concentration of 10 μg/ml and 3-fold dilutions were made in PBS. After a two hours incubation period, the plates were washed and mouse monoclonal anti-myc antibody at a 1000-fold dilution was applied for 1 hour at room temperature. The plates were washed and polyclonal anti-mouse-HRP (DAKO) was applied at a 1000-fold dilution for one hour at room temperature. The plates were washed and ABTS/H₂O₂ substrate was applied. The OD 405 nm was measured.
For series [5] the target is unchanged. Nature of the series: ELISA: vWF coated on the plate, nanobody titrated in 3-fold steps, detection with mouse anti-myc and anti-mouse-HRP, OD 405 nm.
Series [6] shares this target. Put plainly: ELISA on coated vWF: supernatant of a 200 µg/ml nanobody solution heated for 1 h at RT to 90 °C, dilution series, OD 405 nm.
A further series deals with T2, pig vWF (pig, UniProt Q28833 438-2482).
T2 construct: Native vWF in plasma
Nature of the series: sandwich ELISA: nanobody (10 µg/ml) captured on coated anti-myc, plasma from a 5-fold dilution in 2-fold steps, detection with polyclonal anti-vWF-HRP, OD 405 nm.

Series [7] deals with T1, human von Willebrand Factor (vWF). Put plainly: ELISA: vWF coated on the plate, nanobody titrated in 3-fold steps, detection with mouse anti-myc and anti-mouse-HRP, OD 405 nm. The source holds these as a separate data set.

Where a chain is given by its changes, count along the chain named.

Results on 19 molecules are retold here after patent publication US20130136736A1 (Ablynx, published 2013).

Description for pig vWF: A microtiterplate was coated with mouse anti-myc at 1/1000 overnight at 4° C. The plate was washed with PBS-Tween and blocked for two hours at room temperature with PBS-1% casein. After washing, the nanobodies were applied at a concentration of 10 μg/ml in PBS. After a one hour incubation period, the plates were washed and plasma (dog, pig, human, baboon and cynomologues monkey) was applied starting at a five-fold dilution and making further two-fold dilutions in PBS. The plates were incubated for 1 hour at room temperature. […] The plates were washed and ABTS/H₂O₂ substrate was applied. The OD 405 nm was measured.

For the molecule “ADAMTS-13 (from UniProt Q76LX8 75-1427) (enzyme)”, in [1], the cleavage of ULvWF platelet strings on perfusion of pooled normal plasma containing ADAMTS-13 was > 95%; the cleavage of ULvWF platelet strings on perfusion of pooled normal plasma containing ADAMTS-13 and ALX-0081 (10 µg/ml) stood at 95%.

B1: 12B6-3a-12B6 (VHH)
chain: QVQLVESGGGLVQAGGALRLSCAASGRTFSYNPMGWFRQAPGKERDVVAAISRTGGSTYYARSVEGRFTISRDNAKRMVYLQMNALKPEDTAVYYCAAAGVRAEDGRVRTLPSEYNFWGQGTQVTVSSAAAEVQLVESGGGLVQAGGALRLSCAASGRTFSYNPMGWFRQAPGKERDVVAAISRTGGSTYYARSVEGRFTISRDNAKRMVYLQMNALKPEDTAVYYCAAAGVRAEDGRVRTLPSEYNFWGQGTQVTVSS
notes: also called bivalent 12B6
Turning to B1, the binding result in [2] is “binds”.

B2: 12A2-3a-12A2 (VHH)
chain: QVKLEESGGGLVQAGGALRLSCAASGRTFSYNPMGWFRQAPGKERDLVAAISRTGGSTYYPDSVEGRFTISRDNAKRMVYLQMNNLKPEDTAVYYCAAAGVRAEDGRVRTLPSEYTFWGQGTQVTVSSAAAEVQLVESGGGLVQAGGALRLSCAASGRTFSYNPMGWFRQAPGKERDLVAAISRTGGSTYYPDSVEGRFTISRDNAKRMVYLQMNNLKPEDTAVYYCAAAGVRAEDGRVRTLPSEYTFWGQGTQVTVSS
notes: also called bivalent 12A2
For the molecule B2, the binding result in series [3] is “binds”.

B3: 14F8 (VHH)
VHH: AVQLVESGGGLVQAGESLRLSCTSSGRAFSYYNTGWFRQAPGKEREFVAAISWSGGLTYYADSVKGRFTISRDNAKDMVYLQMASLKPEDTAVYYCAANRRQKTVQMGERAYDYWGQGTQVTVSS
notes: Monovalent llama Nanobody; TALON-purified and detected with anti-myc, so tagged (myc/His)
As for B3, in [4], the EC50 (read off the curve) (usually the midpoint of the concentration-response curve) is ~0.02 µg/mL.

B4: 12A5H1 (VHH)
VHH: EVQLVESGGGLVQPGGSLRLSCAASGRIFSIGAMGMYRQAPGKGRELVATITSGGSTNYADPVKGRFTISRDGPKNTVYLQMNSLRAEDTAVYYCYANLKQGSYGYRFNDYWGQGTQVTVSS
notes: Humanised 12A5, monovalent; TALON-purified, so His-tagged
With B4, the “EC50 (read off the curve)” value in [5] is ~0.005 µg/mL.

B5: 12A5H2 (VHH)
VHH: B4 VHH with P74A
notes: as for B4
Take B5: the “EC50 (read off the curve)” value in series [5] is ~0.03 µg/mL.

B6: 12B6-GS30-12B6 (VHH)
chain: QVQLVESGGGLVQAGGALRLSCAASGRTFSYNPMGWFRQAPGKERDVVAAISRTGGSTYYARSVEGRFTISRDNAKRMVYLQMNALKPEDTAVYYCAAAGVRAEDGRVRTLPSEYNFWGQGTQVTVSSGGGGSGGGGSGGGGSGGGGSGGGGSGGGGSEVQLVESGGGLVQAGGALRLSCAASGRTFSYNPMGWFRQAPGKERDVVAAISRTGGSTYYARSVEGRFTISRDNAKRMVYLQMNALKPEDTAVYYCAAAGVRAEDGRVRTLPSEYNFWGQGTQVTVSS
notes: also called bivalent 12B6
With B6, the binding result in [2] was “binds”.

B7: ADAMTS-13 (protein)
chain: AAGGILHLELLVAVGPDVFQAHQEDTERYVLTNLNIGAELLRDPSLGAQFRVHLVKMVILTEPEGAPNITANLTSSLLSVCGWSQTINPEDDTDPGHADLVLYITRFDLELPDGNRQVRGVTQLGGACSPTWSCLITEDTGFDLGVTIAHEIGHSFGLEHDGAPGSGCGPSGHVMASDGAAPRAGLAWSPCSRRQLLSLLSAGRARCVWDPPRPQPGSAGHPPDAQPGLYYSANEQCRVAFGPKAVACTFAREHLDMCQALSCHTDPLDQSSCSRLLVPLLDGTECGVEKWCSKGRCRSLVELTPIAAVHGRWSSWGPRSPCSRSCGGGVVTRRRQCNNPRPAFGGRACVGADLQAEMCNTQACEKTQLEFMSQQCARTDGQPLRSSPGGASFYHWGAAVPHSQGDALCRHMCRAIGESFIMKRGDSFLDGTRCMPSGPREDGTLSLCVSGSCRTFGCDGRMDSQQVWDRCQVCGGDNSTCSPRKGSFTAGRAREYVTFLTVTPNLTSVYIANHRPLFTHLAVRIGGRYVVAGKMSISPNTTYPSLLEDGRVEYRVALTEDRLPRLEEIRIWGPLQEDADIQVYRRYGEEYGNLTRPDITFTYFQPKPRQAWVWAAVRGPCSVSCGAGLRWVNYSCLDQARKELVETVQCQGSQQPPAWPEACVLEPCPPYWAVGDFGPCSASCGGGLRERPVRCVEAQGSLLKTLPPARCRAGAQQPAVALETCNPQPCPARWEVSEPSSCTSAGGAGLALENETCVPGADGLEAPVTEGPGSVDEKLPAPEPCVGMSCPPGWGHLDATSAGEKAPSPWGSIRTGAQAAHVWTPAAGSCSVSCGRGLMELRFLCMDSALRVPVQEELCGLASKPGSRREVCQAVPCPARWQYKLAACSVSCGRGVVRRILYCARAHGEDDGEEILLDTQCQGLPRPEPQEACSLEPCPPRWKVMSLGPCSASCGLGTARRSVACVQLDQGQDVEVDEAACAALVRPEASVPCLIADCTYRWHVGTWMECSVSCGDGIQRRRDTCLGPQAQAPVPADFCQHLPKPVTVRGCWAGPCVGQGTPSLVPHEEAAAPGRTTATPAGASLEWSQARGLLFSPAPQPRRLLPGPQENSVQSSACGRQHLEPTGTIDMRGPGQADCAVAIGRPLGEVVTLRVLESSLNCSAGDMLLLWGRLTWRKMCRKLLDMTFSSKTNTLVVRQRCGRPGGGVLLRYGSQLAPETFYRECDMQLFGPWGEIVSPSLSPATSNAGGCRLFINVAPHARIAIHALATNMGAGTEGANASYILIRDTHSLRTTAFHGQQVLYWESESSQAEMEFSEGFLKAQASLRGQYWTLQSWVPEMQDPQSWKGKEGT
As to B7, the “proteolytic cleavage of the A1-A2-A3 fragment by normal pool plasma (Western blot)” value with A1A2A3 construct, P04275 is on record as “resulting in proteolytic cleavage of the fragment”.

B8: 12A2H1 (VHH)
VHH: EVQLVESGGGLVQPGGSLRLSCAASGRTFSYNPMGWFRQAPGKGRELVAAISRTGGSTYYPDSVEGRFTISRDNAKRMVYLQMNSLRAEDTAVYYCAAAGVRAEDGRVRTLPSEYTFWGQGTQVTVSS
notes: Humanised 12A2, monovalent
Regarding B8, the binding result in series [6] is listed as “binds”.

B9: 12B6 (VHH)
VHH: QVQLVESGGGLVQAGGALRLSCAASGRTFSYNPMGWFRQAPGKERDVVAAISRTGGSTYYARSVEGRFTISRDNAKRMVYLQMNALKPEDTAVYYCAAAGVRAEDGRVRTLPSEYNFWGQGTQVTVSS
notes: as for B3
Turning to B9, the “EC50 (read off the curve)” value in series [4] is ~0.02 µg/mL.

B10: 12A2 (VHH)
VHH: B9 VHH with Q3K, V5E, V47L, A61P, R62D, A85N, N116T
notes: 12B6 homologue, monovalent Nanobody
Regarding B10, in the series with pig vWF, the binding result is “binds”.

B11: 12B6H2 (VHH)
VHH: B8 VHH with L47V, P61A, D62R, T116N
notes: Humanised 12B6, monovalent
In the case of B11, the 50% effective concentration (EC50 (read off the curve)) in series [7] is ~0.01 µg/mL.

B12: 12B6H1 (VHH)
VHH: B8 VHH with E46D, L47V, P61A, D62R, T116N
notes: Humanised 12B6, monovalent
B12: in series [7], the “EC50 (read off the curve)” value is ~0.02 µg/mL.

B13: 12B1 (VHH)
VHH: QVQLVESGGGLVQAGGSLRLSCAASGRTFSNYGMGWFRQAPGKEREFVTSISWSGTYTAYSDNVKGRFTISRDNAKNTVYLQMDSLKPEDTAVYYCAAQSRYRSNYYDHDDKYAYWGQGTQVTVSS
notes: as for B3
As for B13, the “EC50 (read off the curve)” value in series [4] was ~0.02 µg/mL.

B14: 12E3 (VHH)
VHH: B13 VHH with Q1E, S30N, T56S, S61A, E89G, R103S
notes: as for B3
With B14, in series [4], the binding result is given as “binds”.

B15: 12B6-GS9-12B6 (VHH)
chain: QVQLVESGGGLVQAGGALRLSCAASGRTFSYNPMGWFRQAPGKERDVVAAISRTGGSTYYARSVEGRFTISRDNAKRMVYLQMNALKPEDTAVYYCAAAGVRAEDGRVRTLPSEYNFWGQGTQVTVSSGGGGSGGGSEVQLVESGGGLVQAGGALRLSCAASGRTFSYNPMGWFRQAPGKERDVVAAISRTGGSTYYARSVEGRFTISRDNAKRMVYLQMNALKPEDTAVYYCAAAGVRAEDGRVRTLPSEYNFWGQGTQVTVSS
notes: also called bivalent 12B6
As for B15, the binding result in series [2] is reported as “binds”.

B16: 12A2-GS9-12A2 (VHH)
chain: QVKLEESGGGLVQAGGALRLSCAASGRTFSYNPMGWFRQAPGKERDLVAAISRTGGSTYYPDSVEGRFTISRDNAKRMVYLQMNNLKPEDTAVYYCAAAGVRAEDGRVRTLPSEYTFWGQGTQVTVSSGGGGSGGGSEVQLVESGGGLVQAGGALRLSCAASGRTFSYNPMGWFRQAPGKERDLVAAISRTGGSTYYPDSVEGRFTISRDNAKRMVYLQMNNLKPEDTAVYYCAAAGVRAEDGRVRTLPSEYTFWGQGTQVTVSS
notes: also called bivalent 12A2
In the case of B16, the binding result in series [3] was “binds”.

B17: 12D11 (VHH)
VHH: AVQLVDSGGGLVQAGGSLRLSCTASERTTFSSYTLGWFRQAPGKEREFVGGISWSGVSTDYAEFAKGRFTISRDHAANTVYLEMNSLKPEDTAVYYCAALGRYRSNWRNIGQYDYWGQGTQVTVSS
notes: as for B3
For the molecule B17, the binding result in [4] was “binds”.

B18: 12C9 (VHH)
VHH: AVQLVESGGGLVQPGGSLKLSCATSGSIFSSSAMAWYRQASGKQRELVATITSGGRTSYADSVKGRFTISRDNAKNTVYLQMNSLKPEDTAVYDCNFVVDGKRAPWGQGTQVTVSS
notes: as for B3
Turning to B18, the binding result in [4] was “binds”.
